The data set deals with N[C@@H]1[C@@H](O)[C@H](O)[C@@H](CO)O[C@H]1O. Description: steady-state kinetics of purified variant. The data set is classed as biochemical, Clostridium acetobutylicum. The settings on record: acetyl CoA.

One may read the Km as the concentration of substrate that gives half-maximal velocity. The kcat is the maximal rate divided by the concentration of active sites. With “Glucosamine/glucosaminide N-acetyltransferase (GlmA) (Clostridium acetobutylicum ATCC 824; D287N)”, the Km was found to be 11.8 ± 0.5 mM and the kcat stood at 1.05 ± 0.03 s⁻¹.

For “Glucosamine/glucosaminide N-acetyltransferase (GlmA) (Clostridium acetobutylicum ATCC 824; Y297F)”, the Km was determined as 7.1 ± 0.5 mM and the kcat turned out to be 1.3 ± 0.06 s⁻¹.

For the origin of these results see paper PMC5095700.
